We go through 2 molecules from patent US20250145716A1 (RAKUTEN MEDICAL, published 2025).

Assay [1] concerns the target T1, human PD-L1 expressed on cells (human, UniProt Q9NZQ7 19-290).
T1 construct: whole, on cells; One entry covers all human PD-L1-bearing cells; also called huPD-L1 on CHO cells (CHO-hPD-L1); PD-L1 on A431 cells
The assay can be described thus: flow cytometry, IFN-γ-stimulated A431 cells, MFI (FITC). (In flow cytometry, cells or beads pass a laser one at a time.)

Assay [2] addresses T1, human PD-L1 expressed on cells. As to the kind of experiment: flow cytometry on unstimulated A431 cells, ratio of EC50 values. As to the method: (§1) Approximately 2.5×10⁵ A431 squamous cell carcinoma cells were plated in a final volume of 50 μL FACS buffer (phosphate buffered saline, 1% fetal bovine serum, 5 mM EDTA) in 96-well plates. 50 μL 2× Zombie Violet (BioLegend) were added to each well, and the plates were incubated 20-30 minutes at room temperature, protected from light. After incubation, 150 μL FACS buffer were added to each well. The plates were centrifuged at 500×g for 5 minutes. The supernatant was removed, and the cell pellet were resuspended in 200 μL FACS buffer. The wash procedure was repeated for a total of 2-3 washes. […] After the cells were incubated with the primary anti-PD-L1 antibody 1 hour on ice, protected from light, 150 μL FACS buffer were added to each well. The plates were then centrifuged, the supernatant was removed, and the cells were resuspended in 250 μL FACS buffer three times. After the third wash, the cells were resuspended in 100 μL goat anti-human IgG-Alexa Fluor 488 secondary antibody, and incubated for 30 minutes on ice, protected from light. After 3 washes as previously described, the cells were resuspended in 200 μL FACS buffer. The cells were then analyzed using a CytoFLEX flow cytometer.

For assay [3] the target is unchanged. The assay can be described thus: flow cytometry on unstimulated A431 cells, 10 conjugate concentrations. How it is done: as §1
The target is the same in assay [4]. As to the kind of experiment: cell-based or functional assay.
In assay [5] the target is T2, PD-L1-His (Acro Cat PDL-H5229) (human, UniProt Q9NZQ7 19-238).
T2 construct: also called human PD-L1 (SPR analyte); not shown: His tag
As to the kind of experiment: SPR (Biacore 4000) as in Example 3, conjugate captured, PD-L1-His analyte, 37° C. How it is done:
(§2) The binding affinities of the generated antibodies to human PD-L1 were determined by surface plasmon resonance. […] PD-L1-His (Acro Cat PDL-H5229) was tested for binding in a 3-fold titration series up to 100 nM. Data were collected in HBS-P (pH 7.4) at 37° C. and 25° C.
(§3) The binding affinities of the generated anti-PD-L1 conjugates were determined by surface plasmon resonance, as described in Example 3.

Assay [6] concerns the target T3, 6xHis-tagged huPD-L1 (human, UniProt Q9NZQ7 19-238).
T3 construct: also called human PD-L1 (RD Systems 9049-B7); extracellular domain of human PD-L1 fused to a His tag; not shown: 6xHis tag
The assay can be described thus: ELISA, plate-coated 6xHis huPD-L1, OD 450 nm. As to the method:
(§4) Hybridoma supernatants were tested for binding to huPD-L1, cyPD-L1, and muPD-L1 by ELISA. Briefly, 30 μL 6xHis-tagged huPD-L1, cyPD-L1, or muPD-L1 (1 μg/mL in PBS) were immobilized in wells of a 96-well assay plate overnight at 4° C. After washing and blocking steps, 30 μL of antibody supernatant were added to the plate and incubated at room temperature for 1 hr. Bound human antibody was detected using horseradish peroxidase (HRP)-conjugated goat anti-human Fc (Invitrogen Cat. No. 109-035-097; diluted 1:5000) or goat anti-mouse Fc HRP (Invitrogen Cat. No. 115-035-071) as a control. Bound antibody was detected with 1-Step Ultra™ TMB-ELISA Substrate (ThermoFisher Scientific Cat. No. 34029). When the reaction was complete the reaction was stopped, and the plate was read at 450 nm.

Assay [7] deals with T1, human PD-L1 expressed on cells. The assay can be described thus: flow cytometry, CHO-hPD-L1 cells, MFI (FITC).
Assay [8] has as its target T2, PD-L1-His (Acro Cat PDL-H5229). The assay can be described thus: SPR (Biacore 4000) as in Example 3, conjugate captured, PD-L1-His analyte, 25° C. How it is done: as §2, §3
A general note: Surface plasmon resonance follows binding to a sensor surface in real time, without labels.

Assay [9] concerns the target T1, human PD-L1 expressed on cells. The assay can be described thus: flow cytometry, PD-L1-expressing CHO cells, MFI (FITC). As to the method:
Wild-type (wt) Chinese hamster ovary (CHO) cells (ATCC) and CHO cells engineered to express huPD-L1 (BPS Bioscience) were seeded at 200,000 cells in 50 μL FACS buffer (PBS containing 1% FBS and 5 mM EDTA) per well of a 96-well plate. Cell viability was assessed by adding 50 μL 2×Zombie Violet (BioLegend). Dead cell controls were also prepared and 2×Zombie violet was added. After incubating 20-30 minutes at room temperature, protected from light, 150 μL FACS buffer were added to each well. The plates were centrifuged, and the supernatant was aspirated. […] The plates were incubated 30 minutes on ice, protected from light. 150 μL FACS buffer were then added to each well and the plate was centrifuged. The supernatant was removed and the cells were washed three times in 200 μL FACS buffer. […] The cells were incubated 30 minutes on ice, protected from light. 150 μL FACS buffer were then added to each well and the plate was centrifuged. Supernatant was removed and the cells were washed twice with 200 μL FACS buffer. The cells were then resuspended in FACS buffer and analyzed by CytoFLEX using the appropriate channels. After gating for whole, single, live cells, the MFI in the APC channel (or FITC channel for human control samples) was normalized to the signal from hybridoma media alone (or isotype control for human control). MFI fold over media alone was determined for each clone supernatant tested.

Assay [10] has the same target. The assay can be described thus: flow cytometry, IFN-γ-stimulated BxPC3 cells, MFI (FITC).
The target of assay [11] is T4, 6xHis-tagged cyPD-L1 (cynomolgus monkey, UniProt Q9NZQ7 19-238 (human entry)).
T4 construct: The assay text says only '6xHis-tagged cyPD-L1'; also called cynomolgus PD-L1; not shown: 6xHis tag
As to the kind of experiment: ELISA, plate-coated 6xHis cyPD-L1, OD 450 nm. As to the method:
as §4

Assay [12] concerns the target T1, human PD-L1 expressed on cells. The assay can be described thus: cell-based or functional assay. The source holds these as a separate data set.
Assay [13] has as its target T2, PD-L1-His (Acro Cat PDL-H5229). As to the kind of experiment: SPR (Biacore 4000), antibody captured on anti-human CM4 chip, PD-L1-His analyte, 37° C. How it is done: as §2
Assay [14] concerns the target T3, 6xHis-tagged huPD-L1. The assay can be described thus: ELISA, plate-coated 6xHis huPD-L1, OD 450 nm. How it is done:
as §4
(§5) Anti-PD-L1 antibodies, described in Example 1A and manufactured substantially as described in Example 1B, were tested for to huPD-L1 and cyPD-L1 by ELISA substantially as described in Example 1A, using 12 dilutions of antibody ranging from 1 ng/ml to 3 mg/mL.
The source holds these as a separate data set.

Assay [15] addresses T1, human PD-L1 expressed on cells. As to the kind of experiment: flow cytometry on unstimulated A431 cells (MFI against antibody concentration). How it is done: as §1
Assay [16] shares this target. As to the kind of experiment: cell-based or functional assay. This is another data set of the same source.
Assay [17] addresses T3, 6xHis-tagged huPD-L1. As to the kind of experiment: ELISA, plate-coated human PD-L1 (1 µg/mL), OD 450 nm, B7 ligand specificity panel. How it is done:
as §4
(§6) Briefly, wells of a 96-well plate (Corning 3690) were incubated with 30 μL human PD-L1 (RD Systems 9049-B7), human PD-L2 (RD Systems 9075-PL), human B7-1/CD80 (RD Systems 9050-B1), human B7-2/CD86 (RD Systems 9090-B2), human B7-H2 (RD Systems 8206-B7), or human B7-H3 (RD Systems 1949-B3), at a concentration of 1 μg/mL in PBS, overnight at 4C, to coat the wells with ligand. After washing and blocking steps, 30 μL of antibody at 8 concentrations ranging from 1 ng/mL to 3 mg/mL were added to the plate and incubated at room temperature for 1 hr. Bound human antibody was detected as described above.

Assay [18] concerns the target T2, PD-L1-His (Acro Cat PDL-H5229). The assay can be described thus: SPR (Biacore 4000), antibody captured on anti-human CM4 chip, PD-L1-His analyte, 25° C. How it is done: as §2
The target in assay [19] is T5, human PD-L2 (RD Systems 9075-PL) (human, UniProt Q9BQ51 20-219).
T5 sequence (looked up): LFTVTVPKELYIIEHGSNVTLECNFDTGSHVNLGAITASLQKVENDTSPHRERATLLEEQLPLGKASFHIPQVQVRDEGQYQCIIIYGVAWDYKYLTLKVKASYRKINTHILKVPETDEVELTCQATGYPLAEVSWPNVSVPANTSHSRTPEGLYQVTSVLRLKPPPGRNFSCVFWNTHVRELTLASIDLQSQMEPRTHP
The assay can be described thus: ELISA, plate-coated human PD-L2 (1 µg/mL), OD 450 nm, B7 ligand specificity panel. How it is done: as §4, §6
In general terms: An ELISA detects its analyte on a solid surface through an enzyme-linked reagent.

For assay [20], the target named is T4, 6xHis-tagged cyPD-L1. The assay can be described thus: ELISA, plate-coated 6xHis cyPD-L1, OD 450 nm. As to the method:
as §4, §5
The source holds these as a separate data set.

Read-outs that look alike come from different tables or passages of the source.

T3 sequence (Q9NZQ7 19-238): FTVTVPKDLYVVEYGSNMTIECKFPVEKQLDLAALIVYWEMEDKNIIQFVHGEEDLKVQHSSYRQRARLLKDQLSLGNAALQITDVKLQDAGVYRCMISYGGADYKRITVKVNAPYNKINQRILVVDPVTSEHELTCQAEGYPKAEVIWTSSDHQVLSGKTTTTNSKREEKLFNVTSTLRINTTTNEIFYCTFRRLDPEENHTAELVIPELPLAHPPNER
T2 sequence (Q9NZQ7 19-238 limits assumed): as the sequence (Q9NZQ7 19-238) above
T1 sequence (Q9NZQ7 19-290): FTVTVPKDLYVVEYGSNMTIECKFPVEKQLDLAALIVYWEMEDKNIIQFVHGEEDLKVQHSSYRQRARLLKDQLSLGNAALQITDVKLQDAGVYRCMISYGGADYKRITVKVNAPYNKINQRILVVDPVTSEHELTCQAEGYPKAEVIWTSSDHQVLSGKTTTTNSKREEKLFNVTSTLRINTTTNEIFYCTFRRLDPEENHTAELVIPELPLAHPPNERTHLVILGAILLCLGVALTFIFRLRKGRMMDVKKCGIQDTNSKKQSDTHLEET
T4 sequence (Q9NZQ7 other isoform, or with tags, fused parts or gaps): as the sequence (Q9NZQ7 19-238) above, with A33T, A34S, S62N, R68Q, Q82R, F173L, T185A, T192I, H215L counted along it

B1: 1P9-IR700 (antibody, V domains shown)
VH: EVQLVESGGGLVQPGGSLRLSCAASGFTFSTYWMSWVRQAPGKGLEWVANIKQDGGERYYVDSVKGRFTISRDNAKSSLYLQMNSLRAEDTALYYCARLRLYSDYEDYWGQGTLVTVSS
VL: DIQMTQSPSSVSASVGDRVTITCRASQGISSWLAWYQQKPGKAPKLLIYSVSSLQSGVPSRFSGSGSGTDFTLTISSLQPEDSATYYCQQANSLPPTFGGGTKVEIK
modifications: IRDye 700DX (IR700) attached via NHS ester; sites not stated; IRDye 700DX (IR700) attached via NHS ester; sites not stated; DAR 2.5 per antibody
notes: also called 1P9-IR700 conjugate; anti-PD-L1-IR700 conjugate
Turning to B1, the EC50 came out at 0.046 mg/L in assay [1]; 0.0129 mg/L in [3]; 0.0636 mg/L in [6]; 0.0151 mg/L in [7]; 0.0156 mg/L in assay [9]; 0.0439 mg/L in assay [10]. This molecule also registered an EC50 in assay [11] of 0.0542 mg/L. The “fold potency against avelumab-IR700” value in assay [2] was approximately 23 fold. In addition, the “EC50 of luminescence (RLU), PD-1:PD-L1 Blockade Bioassay (PD-L1 aAPC/CHO-K1 cells with PD-1 Effector Jurkat NFAT-luciferase cells)” value in assay [4] was determined as 0.161 mg/L. In addition, the Kd in assay [5] amounted to 0.97 nM; in assay [8], 0.26 nM. For the same molecule, the results for the koff in [5] and in assay [8] were 0.00038 s⁻¹ and 5.4e-05 s⁻¹, respectively. Further, the kon in [5] is 390000 M⁻¹ s⁻¹; in [8], 210000 M⁻¹ s⁻¹. The “EC50 of photoimmunotherapy-induced killing of A431 cells (Cell Tox Green, 128 J/cm^2)” value in assay [12] was determined as 0.0124 mg/L.

B2: 1P4 (antibody, V domains shown)
VH: QVQLVESGGGVVQPGRSLRLSCAASGFTFSNYGMHWVRQAPGKGLEWVSLILYDGSNKYYADSVKGRFTISRDNSKNTLYLQMNSLRAEDTAVYYCARDRVWLDVWGKGTTVTVSS
VL: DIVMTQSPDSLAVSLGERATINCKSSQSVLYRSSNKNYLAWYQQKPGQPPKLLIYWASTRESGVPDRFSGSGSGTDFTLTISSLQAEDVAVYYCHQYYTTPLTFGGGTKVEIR
notes: Recombinant full-length human antibody expressed in CHO K1 GS KO cells, with wild-type human Fc; also called anti-PD-L1 antibody 1P4; Unconj; 1P4
On to B2, for which the dissociation constant (Kd) in assay [13] amounted to 27 nM; in assay [18], 18 nM. Moreover, the koff was 0.0097 s⁻¹ in assay [13] and 0.0045 s⁻¹ in [18]. Moreover, the kon worked out at 360000 M⁻¹ s⁻¹ in assay [13] and 250000 M⁻¹ s⁻¹ in assay [18]. Also, the EC50 in assay [14] worked out at 0.0399 mg/L; in [15], 0.0415 mg/L; in [17], 0.478 mg/L; in assay [19], 5.76 mg/L; in assay [20], 0.0306 mg/L; in assay [9], 0.0457 mg/L. In assay [16], the “EC50 of luminescence (RLU), PD-1:PD-L1 Blockade Bioassay (PD-L1 aAPC/CHO-K1 cells with PD-1 Effector Jurkat NFAT-luciferase cells)” value was 0.25 mg/L.

By EC50 is commonly meant the concentration needed to bring the measured effect to its halfway point. In general, Kd refers to a measure of binding affinity in units of concentration. Lower therefore signals tighter binding. One may read the koff as the rate constant with which the complex falls apart. The kon is the rate constant with which the complex forms. A low value points to slower complex formation.
